Consider 1 molecule from patent publication US20140234868A1, “USE FOR GLYCOLIPOPROTEIN GINTONIN, ISOLATED AND IDENTIFIED FROM GINSENG, AS A NATURAL MEDICAL-PLANT DERIVED LIGAND” (KONKUK UNIVERSITY INDUSTRIAL COOPERATION CORP., priority 2011, published 2014).

The term EC50 denotes the concentration giving half of the maximal effect.

Experiment [1] concerns HUVECs. Description: Tubular formation of HUVECs on Matrigel. The class given is cell-based, human. Conditions: gintonin 30 μg/ml, 4 hrs. The procedure:
To examine the effect of gintonin on angiogenesis, formation of vascular tube-like structures on Matrigel was compared between the control and the gintonin-treated group (Kim et al. Biol Pharm Bull 30: 1674-1679).
Briefly, cells were incubated for 6 hrs in M199 (1% FBS). After trypsinization, the cells were suspended in M199 (1% FBS), and seeded (2×10^5 cells/well) to 24-well plates coated with Matrigel (250 μl/well).
The cells were incubated at 37° C. for 4 hrs in M199 (1% FBS) containing gintonin (30 μg/ml), and observed for tubular formation by inverted fluorescence microscopy (AxioVert200, Carl Zeiss).

In experiment [2] the target is T1, LPA6 receptor (Homo sapiens, UniProt P43657).
T1 construct: host or cells: B103 rat neuroblastoma cells
T1 sequence (P43657 1-344): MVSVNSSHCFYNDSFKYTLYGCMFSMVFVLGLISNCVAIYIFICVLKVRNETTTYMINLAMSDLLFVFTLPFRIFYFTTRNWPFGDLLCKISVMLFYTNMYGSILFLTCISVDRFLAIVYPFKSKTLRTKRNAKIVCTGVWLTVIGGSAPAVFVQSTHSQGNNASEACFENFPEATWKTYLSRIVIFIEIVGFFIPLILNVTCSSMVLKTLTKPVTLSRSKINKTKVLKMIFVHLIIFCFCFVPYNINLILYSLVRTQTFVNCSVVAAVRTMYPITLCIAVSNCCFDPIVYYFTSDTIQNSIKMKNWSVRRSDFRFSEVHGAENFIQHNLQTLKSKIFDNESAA
As to the kind of experiment: Intracellular free Ca2+ (Fura-2AM) in LPA6-expressing B103 cells. It counts as cell-based. An excerpt: (§1) LPA family receptors are endogenous to cells of most organs. B103 rat neuroblastoma cells, known as LPA receptor-null cells (Valentine et al., Biochim Biophys Acta 1780. 597-605) were transiently transfected with a plasmid (vector) carrying one of genes coding for LPA1(edg-2), LPA2(edg-4), LPA3(edg-7), LPA4, LPA5 and LPA6 receptors or a plasmid carrying none of them (empty vector). Two or three days after transfection, the cells are suspended, and made permeable. Then, the permeable cells are treated with Fura-2AM, a fluorescent dye binding to calcium, and then with gintonin, followed by spectrofluorephotometry to examine whether gintonin induces an increase in intracellular free Ca^2+ level. […]

Experiment [3] deals with mutant NMDA receptor (S1308A). As to the kind of experiment: Gintonin-induced activation of mutant NMDA receptor S1308A in oocytes. To be noted: mutant S1308A (PKC phosphorylation site). The class given is cell-based. The method, then:
Two-electrode voltage-clamp recordings were obtained from individual oocytes placed in a small Plexiglas net chamber (5 ml). Electrophysiological experiments were performed using microelectrodes filled with 3 M KCl (resistance of 0.2-0.7 MΩ) and an Oocyte Clamp amplifier (OC-725C; Warner Instrument, Hamden, Conn.). For physiological recordings of NMDA receptor activity, oocytes were first perfused with Mg^2+-free ND96 (mM: 96 NaOH, 2 KOH, 0.3 CaCl2, 5 HEPES pH 7.6 with methanesulfonic acid). Then, the oocytes were clamped at −60 mV holding potential, followed by recoding NMDA currents (induced by administering […]) (Zheng et al., J Neurosci. 17, 8676-8686, 1997; Chang and Kuo, J Neurosci. 28, 1546-1556, 2008).
Thus, it is understood that gintonin stimulates PKC to phosphorylate the NMDA receptor at a specific site (S1308), and thus that gintonin-induced NMDA receptor activation is associated with PKC activity.

For experiment [4], the target named is LPA5 receptor (Homo sapiens, UniProt Q9H1C0). Description: Intracellular free Ca2+ (Fura-2AM) in LPA5-expressing B103 cells. It counts as cell-based. Further details: host or cells: B103 rat neuroblastoma cells.
Text: as §1

Chain of LPA5 receptor (Q9H1C0 whole entry): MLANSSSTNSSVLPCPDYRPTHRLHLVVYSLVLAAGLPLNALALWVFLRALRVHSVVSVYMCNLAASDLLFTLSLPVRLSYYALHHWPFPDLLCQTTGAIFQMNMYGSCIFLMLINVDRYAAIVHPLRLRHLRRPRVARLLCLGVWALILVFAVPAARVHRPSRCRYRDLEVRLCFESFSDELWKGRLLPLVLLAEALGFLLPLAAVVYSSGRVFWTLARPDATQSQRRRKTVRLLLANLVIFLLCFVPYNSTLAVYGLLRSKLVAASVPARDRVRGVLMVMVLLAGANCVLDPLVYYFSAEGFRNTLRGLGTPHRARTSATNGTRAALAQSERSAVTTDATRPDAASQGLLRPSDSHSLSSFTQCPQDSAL

B1: gintonin: ginseng-derived glycolipoprotein; structural protein of ginseng major latex-like protein (MLP151) and ribonuclease-like storage proteins; crude gintonin used in tests (protein)
chain 1: MGLTGKLICQTGIKSDGDVFHELFGTRPHHVPNITPANIQGCDLHEGEFGKVGSVVIWNYSIDGNAMIAKEEIVAIDEEDKSVTFKVVEGHLFEEFKSIVFSVHVDTKGEDNLVTWSIDYEKLNESVKDPTSYLDFLLSVTRDIEAHHLPK
chain 2: RSDYPWAMFALRLQWPAGFCEVNNACDTKSLLNTFTIHGLYPYNAKGTPALYCDGTAFDVNSVSDFLAEMHLAWPSHETNTEDIQFWEHEWKKHGRCSEALLKQTDYFRTALAFRKAFDIVGLLNQEGIYPNNDLYRPKMIKEAIKKHLNAVPEIDFTKNENSEYVLTDINVCVNQQATRFVDCPTDDATDDYRLKFVRLPSKMKFADPRTNSII
As to B1, the tubular formation entry in experiment [1] is reported as “promoted tubular formation”. Moreover, the “gintonin activity on intracellular calcium level” value in experiment [2] is on record as “No gintonin activity was detected”. In experiment [3], the “gintonin-induced NMDA receptor activation” value was “a low level of gintonin-induced NMDA receptor activation”. The concentration giving a half-maximal response (EC50) in experiment [4] (LPA5 receptor, B103 cells, read-out: EC50, LPA receptor-mediated intracellular calcium increase) turned out to be 0.046 ± 0.003 nM. Further, in experiment [4] (gintonin 1 μg/ml, LPA5-expressing B103 cells), the “increase in intracellular calcium level” value stood at 297.5 ± 21.8 µM.
